Our source for the EC50 mouse, EC50 human and IC50 values is patent US20100048468A1 (Amgen, published 2010).

Numbering of substitutions follows the chain as printed. Non-standard residues stand in square brackets, D forms with d. Groups on a side chain read outwards from the residue. Primed or numbered codes have the meaning given here. No end group written: not given here. maleimide = maleimide group of a PEG-maleimide, coupled to the cysteine thiol (thioether); mPEG‑maleimide = 30 kD linear mPEG-maleimide attached to the Cys; mPEG 20 kDa = 20 kD mPEG-maleimide, thioether-linked to the Cys; branched PEG 40 kDa = branched polyethylene glycol of 40 kDa; Aib′ = alpha aminobutyric acid (source's wording)

T1: mouse GLP-1 receptor (mouse, UniProt O35659 22-463)
T1 sequence (looked up): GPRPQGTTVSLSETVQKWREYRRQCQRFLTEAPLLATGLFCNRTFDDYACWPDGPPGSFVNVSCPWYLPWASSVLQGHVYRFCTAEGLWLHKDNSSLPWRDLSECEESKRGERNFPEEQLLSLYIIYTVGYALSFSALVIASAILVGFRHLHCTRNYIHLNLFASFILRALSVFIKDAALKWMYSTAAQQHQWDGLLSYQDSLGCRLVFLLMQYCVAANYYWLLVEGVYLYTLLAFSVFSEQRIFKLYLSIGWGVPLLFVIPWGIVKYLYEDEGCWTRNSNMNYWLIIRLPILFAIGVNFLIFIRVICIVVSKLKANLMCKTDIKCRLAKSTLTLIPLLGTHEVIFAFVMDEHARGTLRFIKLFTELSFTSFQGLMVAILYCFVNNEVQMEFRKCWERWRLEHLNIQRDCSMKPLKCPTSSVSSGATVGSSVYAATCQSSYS

B1: cgGLP-14 (SEQ ID NO: 7 + 20k PEG dimer) (peptide)
peptide: HGEGTFTSDVSSYLEGCAAKEFIAWLVKGRGSSGAPPPS
modifications: not fully specified (residue 17); also: dimer: two peptides on one forked PEG-(maleimide)2
B2: cgGLP-15 (SEQ ID NO: 8 + 20k PEG dimer) (peptide)
peptide: B1 peptide with V27K, K28N, R30G, G31P
modifications: not fully specified (residue 17); also: dimer: two peptides on one forked PEG-(maleimide)2
B3: cgGLP-3 (SEQ ID NO: 6 + 8k PEG dumbbell) (peptide)
peptide: HGEGTFTSDVSSYLEGCAAKEFIAWLVKGRG
modifications: not fully specified (residue 17); also: dimer: two peptides on one mal-PEG-mal, one at each end

One test has as its target T1, mouse GLP-1 receptor. As to the kind of experiment: cell-based or functional assay.
Turning to HGEGTFTSDVSSYLEGC(PEG 30 kDa)AAKEFIAWLVKGRG [cgGLP-7 (SEQ ID NO: 6 + 30k PEG)], the EC50 mouse turned out to be 2.9 nM.

For the molecule HGEGTFTSDVSSYLEGCAAKEFIAWLVKGRGSSGAPPPS (Unconjugated peptide) [HGEGTFTSDVSSYLEGCAAKEFIAWLVKGRGSSGAPPPS (SEQ ID NO: 7)], the EC50 mouse stood at 0.8 nM.

B1 had an EC50 mouse of 4 nM.

On to HGEGTFTSDVSSYLEGCAAKEFIAWLKNGGPSSGAPPPS (Unconjugated peptide) [HGEGTFTSDVSSYLEGCAAKEFIAWLKNGGPSSGAPPPS (SEQ ID NO: 8)], for which the EC50 mouse came to 0.3 nM.

B2 had an EC50 mouse of 2 nM.

HGEGTFTSDVSSYLEGC(branched PEG 40 kDa)AAKEFIAWLVKGRG [cgGLP-2 (SEQ ID NO: 6 + 40k branched PEG)]: the EC50 mouse worked out at 3.6 nM.

For the molecule HGEGTFTSDVSSYLEGCAAKEFIAWLVKGRG (Unconjugated peptide) [HGEGTFTSDVSSYLEGCAAKEFIAWLVKGRG (SEQ ID NO: 6)], the EC50 mouse worked out at 1.4 nM.

On to B3, for which the EC50 mouse is 5.7 nM.

On to HGEGTFTSDVSSYLEGC([maleimide-mPEG 20 kDa])AAKEFIAWLVKGRG [cgGLP-1 (SEQ ID NO: 6 + 20K PEG)], for which the EC50 mouse was determined as 245 nM.

Molecule HGEGTFTSDVSSYLEGC(PEG 20 kDa)AAKEFIAWLVKGRGSSGAPPPS [cgGLP-12 (SEQ ID NO: 7 + 20k PEG monomer)] displayed an EC50 mouse of 8 nM.

A further test addresses T2, human GLP-1 receptor (human, UniProt P43220 24-463). The experiment in a line: cell-based or functional assay.
Regarding HGEGTFTSDVSSYLEGCAAKEFIAWLVKGRGSSGAPPPS (Unconjugated peptide) [HGEGTFTSDVSSYLEGCAAKEFIAWLVKGRGSSGAPPPS (SEQ ID NO: 7)], the EC50 human came out at 0.1 nM.

Turning to B1, the EC50 human was determined as 0.6 nM.

In turn, HGEGTFTSDVSSYLEGCAAKEFIAWLKNGGPSSGAPPPS (Unconjugated peptide) [HGEGTFTSDVSSYLEGCAAKEFIAWLKNGGPSSGAPPPS (SEQ ID NO: 8)] yielded an EC50 human of 0.07 nM.

B2: the EC50 human was determined as 0.8 nM.

On to HGEGTFTSDVSSYLEGCAAKEFIAWLVKGRG (Unconjugated peptide) [HGEGTFTSDVSSYLEGCAAKEFIAWLVKGRG (SEQ ID NO: 6)], for which the EC50 human amounted to 0.24 nM.

B3 gave an EC50 human of 0.2 nM.

On to HGEGTFTSDVSSYLEGC(PEG 20 kDa)AAKEFIAWLVKGRGSSGAPPPS [cgGLP-12 (SEQ ID NO: 7 + 20k PEG monomer)], for which the EC50 human came out at 1 nM.

Another test addresses T2, human GLP-1 receptor. The experiment in a line: 125I-GLP-1 displacement, membranes of CHOK1 cells expressing human GLP-1 receptor. On the procedure:
(§1) Membrane Preparation. […] Cells were sedimented at 1500 rpm for 10 minutes. The resulting pellets were homogenized in 15 mls of ice cold sucrose buffer (25 mM Tris-HCl, 0.32 M Sucrose, 0.25 g/L, sodium azide, pH 7.4) with a motorized, glass fitted, Teflon homogenizer. The homogenate was centrifuged at 48,000×g at 4° C. for 10 minutes, resuspended in 25 ml assay buffer (50 mM Tris-HCl, 5 mM MgCl₂, 10 mg/ml protease-free BSA, 0.1 mg/ml STI, and 0.1 mg/ml Pefabloc, pH 7.4) with a Tissue-Tearor (Biospec Products), then centrifuged again at 48,000×g for 10 minutes. The pellets were homogenized for a third time in 15 ml assay buffer using the Tissue-Tearor and again centrifuged at 48,000×g for 10 minutes. The resulting pellet was resuspended in assay buffer at a wet weight concentration of 4 mg/ml.
Ligand Binding Assay. Binding assays were performed in 96-well U-bottom plates. […] The reaction was terminated by rapid filtration through Unfilter-96 GF/C glass fiber filter plates (FilterMate 196 Packard Harvester, PerkinElmer, Shelton, Conn.) pre-soaked in 0.5% polyethylenimine, followed by three washes with 300 μl of cold 50 mM Tris-HCl, pH 7.4. Bound radioactivity was determined using a TopCount microplate scintillation and luminescence counter (Packard Instrument Company, PerkinElmer, Shelton, Conn.). Nonlinear regression analyses of resulting concentration curves were performed using GraphPad Prism (GraphPad Software, Inc., San Diego, Calif.). […]
For HGEGTFTSDVSSYLE[Aib′]QAAKEFIAWLVKGRGC(mPEG‑maleimide 10 kDa)SG-NH2 [cgGLP-26 (SEQ ID NO: 22 + 10k PEG)], the IC50 (as a rule, the concentration that gives 50% inhibition) worked out at 23 nM.

For HGEGTFTSDVSSYLE[Aib′]QAAKEFIAWLVKGRGC(mPEG‑maleimide)SG-NH2 (also: PEG on Cys32: 30k, but the text says branched 40 kDa) [cgGLP-28 (SEQ ID NO: 22 + 30k PEG)], the IC50 is 71 nM.

As for H[Aib′]EGTFTSDVSSYLE[Aib′]QAAKEFIAWLVKGRGC(mPEG 20 kDa)SG [cgGLP-20 (SEQ ID NO: 25 + 20k mPEG)], the 50% inhibitory concentration (IC50) worked out at 30 nM. This IC50 is about 2.4-fold lower than that of the molecule before.

The target of the next test is T2, human GLP-1 receptor. The description is as above. This is another data set of the same source. On the procedure:
as §1
Ligand Binding Assay. Binding assays were performed in 96-well U-bottom plates. […] The reaction was terminated by rapid filtration through Unfilter-96 GF/C glass fiber filter plates (FilterMate 196 Packard Harvester, PerkinElmer, Shelton, Conn.) pre-soaked in 0.5% polyethylenimine, followed by three washes with 300 μl of cold 50 mM Tris-HCl, pH 7.4. Bound radioactivity was determined using a TopCount microplate scintillation and luminescence counter (Packard Instrument Company, PerkinElmer, Shelton, Conn.). Nonlinear regression analyses of resulting concentration curves were performed using GraphPad Prism (GraphPad Software, Inc., San Diego, Calif.).
In vitro experiments were conducted to determine receptor binding and potency for a class of molecules having a glycine substitution at position 8, a cysteine substitution at position 22 and a variable C-terminus.
The molecule HGEGTFTSDVSSYLEGCAAKEFIAWLVKGRGSSGAPPPS (Unconjugated peptide) [HGEGTFTSDVSSYLEGCAAKEFIAWLVKGRGSSGAPPPS (SEQ ID NO: 7)] registered an IC50 of 100 nM. That is a sub-micromolar value.

B1 registered a half-inhibitory concentration (IC50) of 300 nM.

HGEGTFTSDVSSYLEGCAAKEFIAWLKNGGPSSGAPPPS (Unconjugated peptide) [HGEGTFTSDVSSYLEGCAAKEFIAWLKNGGPSSGAPPPS (SEQ ID NO: 8)] gave an IC50 of 100 nM.

Turning to B2, the IC50 worked out at 300 nM.

The molecule HGEGTFTSDVSSYLEGCAAKEFIAWLVKGRG (Unconjugated peptide) [HGEGTFTSDVSSYLEGCAAKEFIAWLVKGRG (SEQ ID NO: 6)] showed an IC50 of 70 nM.

As for B3, the half-inhibitory concentration (IC50) amounted to 84 nM.

HGEGTFTSDVSSYLEGC(PEG 20 kDa)AAKEFIAWLVKGRGSSGAPPPS [cgGLP-12 (SEQ ID NO: 7 + 20k PEG monomer)]: the half-maximal inhibitory concentration (IC50) worked out at 1000 nM.

Another test has as its target T2, human GLP-1 receptor. The experiment in a line: cell-based or functional assay. The source holds these as a separate data set.
Target sequence in this assay (P43220 24-463): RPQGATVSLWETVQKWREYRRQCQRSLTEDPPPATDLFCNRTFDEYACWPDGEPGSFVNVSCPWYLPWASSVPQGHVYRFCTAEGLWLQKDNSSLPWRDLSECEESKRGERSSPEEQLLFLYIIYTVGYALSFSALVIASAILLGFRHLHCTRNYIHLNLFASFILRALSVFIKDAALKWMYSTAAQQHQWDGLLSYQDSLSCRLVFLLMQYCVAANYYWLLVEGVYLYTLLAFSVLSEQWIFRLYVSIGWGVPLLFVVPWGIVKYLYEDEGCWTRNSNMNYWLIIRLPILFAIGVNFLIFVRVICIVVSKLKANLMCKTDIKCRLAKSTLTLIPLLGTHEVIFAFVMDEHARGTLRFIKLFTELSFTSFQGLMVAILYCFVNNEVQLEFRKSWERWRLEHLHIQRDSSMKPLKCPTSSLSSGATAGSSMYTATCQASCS
HGEGTFTSDVSSYLEGC(PEG 30 kDa)AAKEFIAWLVKGRG [cgGLP-7 (SEQ ID NO: 6 + 30k PEG)] came in with an EC50 human of 0.2 nM.

In the case of HGEGTFTSDVSSYLEGC(branched PEG 40 kDa)AAKEFIAWLVKGRG [cgGLP-2 (SEQ ID NO: 6 + 40k branched PEG)], the EC50 human worked out at 0.7 nM.

As to HGEGTFTSDVSSYLEGC([maleimide-mPEG 20 kDa])AAKEFIAWLVKGRG [cgGLP-1 (SEQ ID NO: 6 + 20K PEG)], the EC50 human worked out at 12 nM.

Another test concerns the target T1, mouse GLP-1 receptor. As to the kind of experiment: cell-based or functional assay. This is another data set of the same source.
HGEGTFTSDVSSYLE[Aib′]QAAKEFIAWLVKGRGC(mPEG‑maleimide 10 kDa)SG-NH2 [cgGLP-26 (SEQ ID NO: 22 + 10k PEG)] had an EC50 mouse of 0.9 nM.

Take HGEGTFTSDVSSYLE[Aib′]QAAKEFIAWLVKGRGC(mPEG‑maleimide)SG-NH2 (also: PEG on Cys32: 30k, but the text says branched 40 kDa) [cgGLP-28 (SEQ ID NO: 22 + 30k PEG)]: the EC50 mouse was found to be 0.8 nM.

With H[Aib′]EGTFTSDVSSYLE[Aib′]QAAKEFIAWLVKGRGC(mPEG 20 kDa)SG [cgGLP-20 (SEQ ID NO: 25 + 20k mPEG)], the EC50 mouse came out at 1.5 nM.

For another test, the target named is T2, human GLP-1 receptor. The experiment in a line: cell-based or functional assay. The source holds these as a separate data set.
Regarding HGEGTFTSDVSSYLE[Aib′]QAAKEFIAWLVKGRGC(mPEG‑maleimide 10 kDa)SG-NH2 [cgGLP-26 (SEQ ID NO: 22 + 10k PEG)], the EC50 human is 0.059 nM.

HGEGTFTSDVSSYLE[Aib′]QAAKEFIAWLVKGRGC(mPEG‑maleimide)SG-NH2 (also: PEG on Cys32: 30k, but the text says branched 40 kDa) [cgGLP-28 (SEQ ID NO: 22 + 30k PEG)] came in with an EC50 human of 0.1 nM.

Turning to H[Aib′]EGTFTSDVSSYLE[Aib′]QAAKEFIAWLVKGRGC(mPEG 20 kDa)SG [cgGLP-20 (SEQ ID NO: 25 + 20k mPEG)], the EC50 human was 0.099 nM.
